Molecular target: NRLLLTG peptide
Assay: ELISA; 150 ng NRLLLTG peptide coated on the plate in 0.05 M sodium carbonate pH 9.6; HSP70 protein added in a dose-dependent manner; detected with anti-HSP70 antibody, TMB, 450 nm

- fold affinity relative to WT HSP70: 1.5 fold
Substance: purified HSP70 S385D/S400D double phospho-mimetic mutant (from UniProt P0DMV8 1-641) (natural protein)
